{
  "source": "IntAct's records for PubMed 30241482",
  "parents": {"B1": {"name": "Protein ripply3 (Homo sapiens), P57055 (parent)", "chain": "MEPEAAAGARKARGRGCHCPGDAPWRPPPPRGPESPAPWRPWIQTPGDAELTRTGRPLEPRADQHTFGSKGAFGFQHPVRVYLPMSKRQEYLRSSGEQVLASFPVQATIDFYDDESTESASEAEEPEEGPPPLHLLPQEVGGRQENGPGGKGRDQGINQGQRSSGGGDHWGEGPLPQGVSSRGGKCSSSK", "partner": "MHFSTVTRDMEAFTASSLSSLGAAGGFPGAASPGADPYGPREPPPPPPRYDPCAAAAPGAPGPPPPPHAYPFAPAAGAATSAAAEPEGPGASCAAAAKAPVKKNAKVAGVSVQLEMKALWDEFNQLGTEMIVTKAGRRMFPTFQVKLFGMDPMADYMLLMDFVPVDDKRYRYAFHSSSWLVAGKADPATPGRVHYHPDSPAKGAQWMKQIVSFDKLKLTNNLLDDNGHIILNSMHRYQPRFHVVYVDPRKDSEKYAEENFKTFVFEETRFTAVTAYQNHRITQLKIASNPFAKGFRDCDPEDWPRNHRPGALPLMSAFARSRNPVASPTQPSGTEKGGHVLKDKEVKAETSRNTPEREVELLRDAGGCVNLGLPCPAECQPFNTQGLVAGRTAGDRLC"}},
  "data": [
    {"variants_of": "B1", "conditions": "with tbx1_human TBX1, O43435", "values": [
      {"variant": "MEPEAAAGARKARGRGCHCPGDAPWRPPPPRGPESPAPWRPWIQTPGDAELTRTGRPLEPRADQHTFGSKGAFGFQHPVRVYLPMSKRQEYLRSSGEQVLASFPVQATIDFYDDESTESASEAEEPEEGPPPLHLLPQEVGGRQENGPGGKGRDQGINQGQRSSGGGDHWGEGPLPQGDSSRGGKCSSSK", "note": "[V179D]", "effect of a mutation on the interaction": "with no effect"},
      {"variant": "MEPEAAAGARKARGRGCHCPGDAPWRPPPLRGPESPAPWRPWIQTPGDAELTRTGRPLEPRADQHTFGSKGAFGFQHPVRVYLPMSKRQEYLRSSGEQVLASFPVQATIDFYDDESTESASEAEEPEEGPPPLHLLPQEVGGRQENGPGGKGRDQGINQGQRSSGGGDHWGEGPLPQGVSSRGGKCSSSK", "note": "[P30L]", "effect of a mutation on the interaction": "with no effect"},
      {"variant": "MEPEAAAGARKARGRGCHCPGDAPWRPPPPRGPESPAPWRPWIQTPGDAELSRTGRPLEPRADQHTFGSKGAFGFQHPVRVYLPMSKRQEYLRSSGEQVLASFPVQATIDFYDDESTESASEAEEPEEGPPPLHLLPQEVGGRQENGPGGKGRDQGINQGQRSSGGGDHWGEGPLPQGVSSRGGKCSSSK", "note": "[T52S]", "effect of a mutation on the interaction": "decreasing interaction strength"},
      {"variant": "MEPEAAAGARKARGRGCHCPGDAPWRPPPPRGPESPAPWRPWIQTPGDAELTRTGRPLEPRADQHTFGSKGAFGFQHPVRVYLPMSKRQEYLRSSGEQVLASFPVQATIDFYNDESTESASEAEEPEEGPPPLHLLPQEVGGRQENGPGGKGRDQGINQGQRSSGGGDHWGEGPLPQGVSSRGGKCSSSK", "note": "[D113N]", "effect of a mutation on the interaction": "with no effect"}
    ]}
  ]
}
